Experimental data reported in PMC12345223.

Molecular target: T1, ChCpc1;ChAtf1 (Cochliobolus heterostrophus C4 (Tox1+, …, UniProt M2T2C6;M2TIN4 1-465;1-567, |))
T1 sequence 1: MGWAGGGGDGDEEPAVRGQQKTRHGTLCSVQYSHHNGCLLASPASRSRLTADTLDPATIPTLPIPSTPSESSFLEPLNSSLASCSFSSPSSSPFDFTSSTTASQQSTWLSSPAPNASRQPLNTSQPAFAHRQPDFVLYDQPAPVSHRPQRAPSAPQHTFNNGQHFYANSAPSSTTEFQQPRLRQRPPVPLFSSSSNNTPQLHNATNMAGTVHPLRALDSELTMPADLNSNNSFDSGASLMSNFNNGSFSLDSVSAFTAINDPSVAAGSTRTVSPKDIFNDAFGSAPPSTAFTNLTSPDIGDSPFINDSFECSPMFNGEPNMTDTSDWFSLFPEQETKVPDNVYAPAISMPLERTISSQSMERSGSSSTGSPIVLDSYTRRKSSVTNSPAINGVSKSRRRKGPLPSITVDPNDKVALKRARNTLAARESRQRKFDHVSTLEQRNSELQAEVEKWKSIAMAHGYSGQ
T1 sequence 2: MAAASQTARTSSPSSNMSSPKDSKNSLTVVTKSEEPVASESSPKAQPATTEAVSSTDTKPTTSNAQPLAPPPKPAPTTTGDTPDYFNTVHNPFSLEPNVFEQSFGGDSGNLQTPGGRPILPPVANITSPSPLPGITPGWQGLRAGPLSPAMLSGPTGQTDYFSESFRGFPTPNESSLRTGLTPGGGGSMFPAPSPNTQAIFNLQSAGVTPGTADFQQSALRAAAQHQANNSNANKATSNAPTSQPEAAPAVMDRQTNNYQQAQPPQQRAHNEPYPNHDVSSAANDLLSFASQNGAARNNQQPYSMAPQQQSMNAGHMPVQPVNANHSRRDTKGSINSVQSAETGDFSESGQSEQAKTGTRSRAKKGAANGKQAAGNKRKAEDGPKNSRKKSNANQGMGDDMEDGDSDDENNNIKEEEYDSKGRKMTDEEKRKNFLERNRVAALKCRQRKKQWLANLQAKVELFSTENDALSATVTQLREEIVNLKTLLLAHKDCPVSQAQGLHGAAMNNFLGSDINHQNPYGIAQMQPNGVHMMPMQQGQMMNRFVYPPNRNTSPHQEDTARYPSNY
Test: EMSA; enhanced versus ChCpc1 alone; Light Shift Chemiluminescent EMSA Kit (Beyotime), 20 min at 25°C; 6.5% polyacrylamide gel, 0.5x TBE; binding buffer, salt and pH not stated
Conditions: protein: recombinant;recombinant; tags: His (pET-32a);His (pET32a); copies: 1;1; label: biotin (on forward strand); blunt

B1: ChARG4 promoter probe (dsDNA)
DNA 1: CATTGGCGTTTGGGACTGAATTACAATGAGTAATGAAATAACTCACACCACAAAGCAGTA
DNA 2: TACTGCTTTGTGGTGTGAGTTATTTCATTACTCATTGTAATTCAGTCCCAAACGCCAATG
binding result: binds

B2: ChATG8 promoter probe (dsDNA)
DNA 1: GGAGAGCGTGAAGGAGAGAGACGGGATGAGTCAAAGTACCCAGGTAGCCAGGTCATGGGA
DNA 2: TCCCATGACCTGGCTACCTGGGTACTTTGACTCATCCCGTCTCTCTCCTTCACGCTCTCC
binding result: binds
